This is an account of results in the supplement of paper PMC9170038.

The data set has as its system MS2 coat protein. The data set can be described thus: apparent KD of MS2 coat protein; designed switch direction (-1 OFF switch, 1 ON switch): -1; higher = weaker reporter binding. In short, it runs like this: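 An oligonucleotide input, 200 uM small-molecule ligand, or no input was present during titration of SNAP-549-labelled MS2 coat protein, which was doubled from 0.7 or 1.5 nM to 3 µM. Designed RNA switches had been transcribed on Illumina chips by stalled E. coli RNA polymerase. Apparent KD per design is the median over clusters of curves fitted to normalised cluster fluorescence.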

Where [1] appears, read: input ligand: microRNA oligo, concentration not stated.
Setting [2] is: Eterna round: R95, input ligand: microRNA oligo, concentration not stated.
The mark [3] stands for this setting: Eterna round: R95, input ligand: FMN 200 uM.
[4] abbreviates: Eterna round: R95, input ligand: none.

For the sequence “GCCUCACAUGAGGAUCACCCAUGUCAGGAUAUAGGAGACGGCAGAAAUCCUGCCAUCGCUAGAAGGGACUGGCA [Tirebi] (Eterna round: R96, puzzle: Exclusion 1)”, the “apparent KD of MS2 coat protein” value (input ligand: FMN 200 uM) is 138 nM, the “apparent KD of MS2 coat protein” value under setting [1] amounted to 50.6 nM and the “apparent KD of MS2 coat protein” value (input ligand: none) came to 67 nM.

Regarding “GCCUCACAUGAGGAUCACCCAUGUCAGGAUAUAGGAGACGGUAGCUUUGCUGCCAUCGCUAGAAGGGACUGGCU (puzzle: Exclusion 1)”, the “apparent KD of MS2 coat protein” value under setting [2] came out at 65.6 nM.

Regarding “GCCUCACUUGAGGAUCACCCAAGUCAGGAUAUCUACAAGCCGGCCAUGCCAGCUUGCAAGAGAAGGGACUCUAA [Diazale] (Eterna round: R97, puzzle: Exclusion 1)”, the “apparent KD of MS2 coat protein” value (input ligand: FMN 200 uM) came out at 205 nM and the “apparent KD of MS2 coat protein” value (input ligand: none) was determined as 31.6 nM.

For “GCCUCACUUGAGGAUCACCCAAGUCAGGAUAUCUACAGGCCGGCCAUACCGACCUGCAAGAGAAGGGACUCUAA [Aristi] (Eterna round: R97, puzzle: Exclusion 1)”, the “apparent KD of MS2 coat protein” value runs as follows: (input ligand: FMN 200 uM) 211 nM; (input ligand: none) 31.4 nM.

As to “GCCUCGUCAGGAUAUUGGGAAGGCUGUUUUAUGAUUGCCCACAAGAAGGGACAUGAGGAUCACCCAUGUACAUU [Eternabot (L1) Solution 51] (Eterna round: R97, puzzle: Exclusion 4)”, the “apparent KD of MS2 coat protein” value by setting is: (input ligand: FMN 200 uM) 63.3 nM; (input ligand: none) 32.5 nM.

As to “GCCUGUGAAGGAUAUACAUGAGGAUCACCCAUGUGGCGGGCAUACCCGCCGAGACCGUGUAGAAGGUCAUAGUA [Telamais] (puzzle: Exclusion 3)”, the “apparent KD of MS2 coat protein” value under setting [2] is 49.9 nM.

For “GCCUUACAUGAGGAUCACCCAUGUCAGGAUAUGUCAGAGUAGGUAAAACACCACUCUAAUAGAAGGGACAUGCA [Diisarlais] (puzzle: Exclusion 1)”, the “apparent KD of MS2 coat protein” value under setting [2] is 16.5 nM.

On to “GCGAUAAACGAGGAUAUCGUAUCGGAAACGAUACGAGAAGGUGUAACAUGAGGAUCACCCAUGUUCCUCAACGC [Mat - Exclusion 6 - Eli Mod - D65] (puzzle: Exclusion 6)”, for which, under setting [2], the “apparent KD of MS2 coat protein” value was 36.3 nM.

As to “GCGAUGUGAGGAUAUACAAGGUGUGAGAGUGCUUGAACGUAACAUGAGGAUCACCCAUGUAGAAGGUAUGUGAU [Eternabot (L1) Solution 29] (Eterna round: R97, puzzle: Exclusion 2)”, the “apparent KD of MS2 coat protein” value was found to be 109 nM (input ligand: FMN 200 uM) and 181 nM (input ligand: none).

Consider “GCGCAAACGCCAAAAGGCGAAAUUACAUGAGGAUCACCCAUGUAGGAUAUCGAUUGCUUUGCAGUCGAGAAGGACAUGAUGCGC [JL ENG3 3.80 Mod 1] (Eterna round: R96, puzzle: Exclusion NG 3)”, for which the “apparent KD of MS2 coat protein” value under setting [1] came out at 13.6 nM.

Regarding “GCGGAAAACUUAGGAUAUCAGGGCUGCACAUGAGGAUCACCCAUGUGAUAGCUCUAACGCGGUCCUGAGAAGGGAGAGCCCGGA [Rarasoa] (Eterna round: R96, puzzle: Exclusion NG 2)”, the “apparent KD of MS2 coat protein” value (input ligand: FMN 200 uM) was 94.2 nM, the “apparent KD of MS2 coat protein” value under setting [1] stood at 43.8 nM and the “apparent KD of MS2 coat protein” value (input ligand: none) turned out to be 44.7 nM.

Consider “GCGGUACAUGAGGAUCACCCAUGUUAGGAUAUUCUACGUCUCUAAUCUGAAACGCAAGGAAGAAGGAGCGUGGG [Eternabot (Original) Solution 21] (Eterna round: R97, puzzle: Exclusion 1)”, for which the “apparent KD of MS2 coat protein” value came out at 83.7 nM (input ligand: FMN 200 uM) and 28.2 nM (input ligand: none).

Take “GCUCGCUGAGGAUAUACUAAAACACGCUCUGGGAGGUCUUGACUUGAGGAUCACCCAAGUAGAAGGCAGUUAAA [Zaesleeran] (Eterna round: R97, puzzle: Exclusion 2)”: the “apparent KD of MS2 coat protein” value reads like this: (input ligand: FMN 200 uM) 437 nM; (input ligand: none) 450 nM.

Regarding “GCUCGUACGGAGGAUAUAGAUUUCGGAAACCGACUAGAAGGCCGAACAUGAGGAUCACCCAUGUGAUUUAUAUC [Gesozarequ] (puzzle: Exclusion 6)”, the “apparent KD of MS2 coat protein” value runs as follows: under setting [3], 23.2 nM; under setting [2], 18.9 nM; under setting [4], 23.4 nM.

In the case of “GCUCUGCGAGGAUAUACAUGAGGAUCACCCAUGUGCGAGUUACUUGUGAGGUCGGUUGGUAGAAGGCGCGGAGG [Mat - Exclusion 3 - Mod of JL D100] (puzzle: Exclusion 3)”, under setting [2], the “apparent KD of MS2 coat protein” value came out at 77.5 nM.

As to “GCUGGUAUAGGAUAUACGUAAGACGUGGUCCACAGUUAAUUACAUGAGGAUCACCCAUGUAGAAGGAUGGAAGC [Eternabot (L2) Solution 95] (Eterna round: R97, puzzle: Exclusion 2)”, the “apparent KD of MS2 coat protein” value is 298 nM (input ligand: FMN 200 uM) and 65.8 nM (input ligand: none).

Turning to “GCUGGUCGAGGAUAUACAAUCGUGCUUCGGCACGUAAGGUCACAUGAGGAUCACCCAUGUAGAAGGCGACCAGC [E2/2-A2] (Eterna round: R97, puzzle: Exclusion 2)”, the “apparent KD of MS2 coat protein” value reads like this: (input ligand: FMN 200 uM) 175 nM; (input ligand: none) 30.9 nM.

“GCUGGUCGAGGAUAUACAUGAGGAUCACCCAUGUAGAUCAACCAGCUUCGGCUGGAAUGUAGAAGGCGACCAGC [E3/5-A4] (Eterna round: R97, puzzle: Exclusion 3)”: the “apparent KD of MS2 coat protein” value was 117 nM (input ligand: FMN 200 uM) and 19.5 nM (input ligand: none).

Take “GCUGGUCGAGGAUAUACAUGAGGAUCACCCAUGUGGUCACGUGACGAUAGUCACGAAUGUAGAAGGUGACCAGC [E3/3-B1] (Eterna round: R97, puzzle: Exclusion 3)”: the “apparent KD of MS2 coat protein” value (input ligand: FMN 200 uM) was 107 nM and the “apparent KD of MS2 coat protein” value (input ligand: none) stood at 1760 nM.

On to “GCUGGUCGAGGAUAUAUAUGACGUGCUUCGGCACGAAGAUCACAUGAGGAUCACCCAUGUAGAAGGCGACCAGC [E2/8-A1] (Eterna round: R97, puzzle: Exclusion 2)”, for which the “apparent KD of MS2 coat protein” value by setting is: (input ligand: FMN 200 uM) 1480 nM; (input ligand: none) 156 nM.

“GCUGUCACCGUUAGGAUAUGUGAUUAAAUAUGAUCGCAGAAGGAACAUGAGGAUCACCCAUGUCGAUCCGUCCG [Eternabot (L1) Solution 36] (Eterna round: R97, puzzle: Brourd's mod of Exclusion 4)”: the “apparent KD of MS2 coat protein” value came out at 34.8 nM (input ligand: FMN 200 uM) and 23.1 nM (input ligand: none).

For “GCUUGUAGAGGAUAUACAAGGGCCUUAGCGAAUAACACCGCACAUGAGGAUCACCCAUGUAGAAGGCUACCACC [Tezausesti] (puzzle: Exclusion 2)”, under setting [2], the “apparent KD of MS2 coat protein” value was 15.2 nM.

Regarding “GCUUGUAGAGGAUAUACAAGGGCCUUAGCGGAUAACACCGCACAUGAGGAUCACCCAUGUAGAAGGCUACCACC [Veorlace] (puzzle: Exclusion 2)”, the “apparent KD of MS2 coat protein” value under setting [2] was determined as 16.6 nM.

With “GCUUUUGGGCAAGGAUAUCCUGCGCGGUUCUGGUUCGUGUCUGUCACAUGAGGAUCACCCAUGUGGGAGAAGGUGCCUGUGGUG [Design 71] (Eterna round: R96, puzzle: Exclusion NG 2)”, the “apparent KD of MS2 coat protein” value by setting is: (input ligand: FMN 200 uM) 38.1 nM; under setting [1], 16.9 nM; (input ligand: none) 23 nM.

In the case of “GGAAAAUGAGGAUAUACAUGUUUGAUACCUCUACGCCCGCAACAUGAGGAUCACCCAUGUAGAAGGCAUGAAAA [Marius] (puzzle: Exclusion 2)”, the “apparent KD of MS2 coat protein” value under setting [2] turned out to be 13.9 nM.

As to “GGAAAUCAUGUAGGAUAUGCGUGGCGAAGCUAUGCAGAAGGACAUGAGGAUCACCCAUGUGCUUCCGUCUGCGUACAGACGGAA [Mat - Exclusion NG 1 - Mod of JL - D20] (Eterna round: R96, puzzle: Exclusion NG 1)”, the “apparent KD of MS2 coat protein” value (input ligand: FMN 200 uM) is 32.3 nM, the “apparent KD of MS2 coat protein” value under setting [1] turned out to be 77.9 nM and the “apparent KD of MS2 coat protein” value (input ligand: none) worked out at 186 nM.

For the sequence “GGAAAUCAUGUAGGAUAUGCGUGGCGAAGCUAUGCAGAAGGACAUGAGGAUCACCCAUGUGCUUCCGUCUGCGUACAGACGGUA [Mat - Exclusion NG 1 - Mod of JL - D19] (Eterna round: R96, puzzle: Exclusion NG 1)”, the “apparent KD of MS2 coat protein” value reads like this: (input ligand: FMN 200 uM) 80.2 nM; under setting [1], 78.5 nM; (input ligand: none) 143 nM.

As for “GGAAGAAUGAGUAGUCCUCAUUGAAGAGAACAGUAAGAAACAUGAGGAUCACCCAUGUAAGAACAAGCUUUUGCUCA [JR_Sv3TOV2_Sub002] (puzzle: Sensor v3, turn-off variant 2)”, the “apparent KD of MS2 coat protein” value reads like this: under setting [3], 168 nM; under setting [2], 699 nM; under setting [4], 259 nM.

On to “GGAAGGUCAGGAUAUGCGAGGGAGUGGGAAAUAGGAUGGUAGCAGAAGGGACAUGAGGAUCACCCAUGUUAGGA [JR_Exclu4_Sub0101] (puzzle: Exclusion 4)”, for which, under setting [2], the “apparent KD of MS2 coat protein” value came to 28 nM.

In the case of “GGAAGUAGAAACCGAUCCUACAUGAGGAUCACCCAUGUAGCAAGACGUGCACGCGAAGCUCGUCAGACUACCAGAAA [salish99_TOv1_r3_009] (puzzle: Sensor v3, turn-off variant 1)”, the “apparent KD of MS2 coat protein” value is, setting by setting: under setting [3], 301 nM; under setting [2], 286 nM; under setting [4], 293 nM.

Regarding “GGAAUACAUGAGGAUCACCCAUGUAAGGAUAUGCUGAAUAACACGGAAUUAACGUGCAGCAGAAGGUACAAAGG [Mat - Mod of my Eli Mod D43] (puzzle: Exclusion 1)”, the “apparent KD of MS2 coat protein” value runs as follows: under setting [3], 62.8 nM; under setting [2], 63.3 nM; under setting [4], 113 nM.

“GGAAUACCCUCGAGUUAUCACAUGAGGAUCACCCAUGUCCCAAGCCUUUUGCUCUGAGCUGCGUAUACGCAGAUGUA [Eternabot (Original) Solution 23] (Eterna round: R97, puzzle: Sensor, turn-off variant 1)”: the “apparent KD of MS2 coat protein” value runs as follows: (input ligand: FMN 200 uM) 112 nM; (input ligand: none) 128 nM.

On to “GGACCAUAUCAGGAUAUGACUAGCCUCGGCUAGUCAGAAGGGAUGACAUGAGGAUCACCCAUGUGAUCAGGUCC [E6/1-C2] (Eterna round: R97, puzzle: Exclusion 6)”, for which the “apparent KD of MS2 coat protein” value runs as follows: (input ligand: FMN 200 uM) 59.5 nM; (input ligand: none) 36.7 nM.
